Measured values published in publication PMC8511952.

How the values were obtained:
Test in all cases: fluorescence anisotropy
Details in all cases: unmodified in vitro transcript; FA: 5 nM labeled tRNA, 25 mM Tris-HCl pH 8, 50 mM NaCl, 1 mM MgCl2, room temperature, 30 min
[1] = test system: MBP-ERS2.5W E205G (Homo sapiens)
[2] = test system: MBP-ERS2.5W P14R (Homo sapiens)
[3] = test system: MBP-ERSRC E205G (Homo sapiens)

Question: How did the Kd [1] turn out when tRNAGlu(TTC) was run?
Answer: Its Kd is 54.3 nM.

Question: What about the Kd [2] of the same substance?
Answer: The Kd was 94 nM.

Question: And the Kd [3]?
Answer: Its Kd is 277 nM.
